Test results from the DeepSol protein solubility set.

Assay: soluble on expression in E. coli; label from the status in PepcDB or PDB records

| Sequence | soluble on expression in E. coli |
| --- | --- |
| MEQRTRLALLKEIAEFLNEETEMYSMTQGALKYLIEGSNFTTGWIFFINSVGEHELVSHVALPQSLTADHCHYIKDGSCWCVKAFNQRRLMKASNIVNCSRINLASKAFPSQNDNITHHATVPLKSGQEQFGILNVASPNTEIYSDEDLELLESVAFQLGSAIKRIYLTDREKEAAKINERNRLARDLHDSVNQMLFSVKLTAHAAYGMSNESIAKQAFKTIEKTSQNAVNEMRALIWQLKPVGLEQGLIHALTAYSKLMHIQLNVNVEGLIDLSNEIEENIYRALQECINNVKKHADTNKMDLTLKQMNDILYIDVIDYGQGFEIDNVQIASSHGINNIKQRVKLLRGKVTFHSQPTKGTQIQFTIPIK | not soluble |
| MYSEERRRQIASLTAVEGRVNVTELAARFDVTAETIRRDLAVLDREGVVHRVHGGAVANQTFQTAEFSLDTRSRSASGAKNSIAHAALSYLPEAQGGLFLDAGTTTAALAELLAAQPFAKHWSIVTNSLSIALTLANSGLDEIQLLGGSVRAITQAVVGDTALRTLALMRADVAFIGTNALTIDHGLSTADSQEAAIKSAMITNAHKVVVLCDSTKMGTDYLVSFGSISDIDVIITDANAPESFVKALRDRDVEVIIA | not soluble |
| MAYDLWYWDGIPGRGEFVRLALEAGKIPYRDRAREPGEDMLADMRRRRDTAPFAPPYLVADGMTIAQTANILLFLGVEHGLAPPDRAGRLWVNQLQLTIADLTAEAHDVHHPVAAGLYYEDQQDVALRRAADFRETRMPKFMQYFEQALDRPGGWLTDMGRWSYADLSLYHVVEGLLHAFPRRMRTLMHRYPRLMTLHARVAELPELRGYLASDRRLPFGDGIFRHYPELDGA | not soluble |
| MEHTIAVIPGSFDPITYGHLDIIERSTDRFDEIHVCVLKNSKKEGTFSLEERMDLIEQSVKHLPNVKVHQFSGLLVDYCEQVGAKTIIRGLRAVSDFEYELRLTSMNKKLNNEIETLYMMSSTNYSFISSSIVKEVAAYRADISEFVPPYVEKALKKKFKLEHHHHHH | soluble |
| MGSDKIHHHHHHMNKLINRISPETSENRILHAGFSIILMSEEITQTLSGLSSDMIIFILSGSITIYSTKEEKKTIGEQYMIFLRSFENYTYDITLGSKIIIFFFDSLTMNELPYYQHPYGILPQPISKWIELKIVEPLYGFLELVGQYLENNFLNYPLYELKRTELFYLLKKLYRKEELDYFFYLSSTHSAEFERLIAENYIKAKTVTDLAQMIGYGVNSFRMKFKKVFGIPAYEWLMQEKSKRLLVAIANSEDDFKNIIDEFDFSSHSHFYKFCKARFGYSPTELRKKLKSL | not soluble |
| MGSDKIHHHHHHVVNQAQKMNFLTHLHLADISKTHLAANVAGNYIQAPIAQAPVEFRQALWLNQEINTLCASHELTIELMEAFPAPLRSIAAELMAVSFDYYLAYYWEEYHHQPLNEFSHKAYDALENFAAQGIDQYHPEALIKLLPTIRSQDWLGSYATENGLQQALAQVAKPHPQAALFKDAHKVVNKMQIEIETTFRTFYPQLMAYSRIWSRKTPAEYLP | not soluble |
| MGSDKIHHHHHHMVFFMLIIDVNHGALTLAEEYLNLGYEVDVWDIYQKIKKSEDFKVKYQKLKEKFGNKLNLFFEQPNFEKYDRVIAPIHCPIDVDFIPFTDAVSKILKEKFGNIHKKIINVTGVKGKTTTTSLINHILKDKYSTYLHNSNFGSIAPPTILKVLNSLDIDKYDFFIFETSLGLIKCKYGAITNVLENYKIAGGRKDALTAKFSSLKNAELSFINKRDINRYDLNINHKCLNVVDVDRAKILDKYPLKFKYFDEIFEFSKNIFGLHFVENSLFAIEICKNLVDMEEIRYRLKTFTIKNRMEIKEINKKILVKNINPGLDVKAISYAIKDFLEVFGGDIYIGGDFGIVCEEIDVKKLSEVLKRFNCRYIFVGEIGKELLNYLNGGYIKSYDENKIKRDSLVILREKIK | not soluble |
| MSLQTLSIQHGTLVTMDQYRRVLGDSWVHVQDGRIVALGVHAESVPPPADRVIDARGKVVLPGFINAHTHVNQILLRGGPSHGRQLYDWLFNVLYPGQKAMRPEDVAVAVRLYCAEAVRSGITTINDNADSAIYPGNIEAAMAVYGEVGVRVVYARMFFDRMDGRIQGYVDALKARSPQVELCSIMEETAVAKDRITALSDQYHGTAGGRISVWPAPAITPAVTVEGMRWAQAFARDRAVMWTLHMAESDHDERLHWMSPAEYMECYGLLDERLQVAHCVYFDRKDVRLLHRHNVKVASQVVSNAYLGSGVAPVPEMVERGMAVGIGTDDGNCNDSVNMIGDMKFMAHIHRAVHRDADVLTPEKILEMATIDGARSLGMDHEIGSIETGKRADLILLDLRHPQTTPHHHLAATIVFQAYGNEVDTVLIDGNVVMENRRLSFLPPERELAFLEEAQSRATAILQRANMVANPAWRSLEGHHHHHH | soluble |
| MDQSIRHLLGNLSLFTPPEEAAVYAEQHAVNKNEPLYFVVFPQADTALSELLVAGYQKLLENNFWGLTNSTQEAKDLMSRYGNTGLELYAHSRGSMTLGNMLYSFQQQGVHGIANENTTINLYGPAFNVLVASDLLGYVSDGKQTTVGFDGHRYDFVSRWIGGNSYTYKTIPSDSNAWKEWWRMFTDPDNPHTCLGDANAICNTLYGSSHLKQKP | not soluble |
| SAEEPEPDLGVAEGSEDQALEMPSWKAPEDIDPQPGSYEIRHYGPAKWVSTCVESLDWDSAIQTGFTKLNGYIQGKNEKEMKIKLTAPVTSYVEPGSSPFSLLMDSPVAKRIKNNF | soluble |
| MKSVVSSRETRSESNKSRRTFASTEWNKIIRETLYLETIYIPLDATSHSPDIIFQLQSPVEPKVLTVGVACKGRWKSEGIGWSDIIDEAKKFLDPVYDQVLSSAMDYHHCMLIIVSTKLSLNVSNELGNQSRCYSSGMFIRGDSFKVPDNCELVILCERDVQMLIDEEILSGLERAFHVSRSPTFWDFRLDLLVNLQ | not soluble |
| MGHHHHHHSHDDDDLNTIEFKILAYYTRHHVFKSTPALFSPKLLRTRSLSQRGLGNCSANESWTEVSWPCRNSQSSEKAINLGKKKSSWKAFFGVVEKEDSQSTPAKVSAQGQRTLEYQDSHSQQWSRCLSNVEQCLEHEAVDPKVISIANRVAEIVYSWPPPQATQAGGFKSKEIFVTEGLSFQLQGHVPVASSSKKDEEEQILAKIVELLKYSGDQLERKLKKDKALMGHFQDGLSYSVFKTITDQVLMGVDPRGESEVKAQGFKAALVIDVTAKLTAIDNHPMNRVLGFGTKYLKENFSPWIQQHGGWEKILGISHEEVD | not soluble |
| MSKVVPIASLTPYQSKWTICARVTNKSQIRTWSNSRGEGKLFSLELVDESGEIRATAFNEQVDKFFPLIEVNKVYYFSKGTLKIANKQFTAVKNDYEMTFNNETSVMPCEDDHHLPTVQFDFTGIDDLENKSKDSLVDIIGICKSYEDATKITVRSNNREVAKRNIYLMDTSGKVVTATLWGEDADKFDGSRQPVLAIKGARVSDFGGRSLSVLSSSTIIANPDIPEAYKLRGWFDAEGQALDGVSISDLKS | soluble |
| MSLTENKELRDILGGYHDNIKSKIMENKLDEAIYLVDSLSATFKLPSSGYDRSSCTPYNNEVSEKYGIEEYVNASLIPTPRTLFIAAQNPKDEKRDVFTDLLMKSNTKLVVSLIDDPRYFEEEWLQDRKVIKYMNKDLFIDEIYNIRGRNIRRLRYINWVDFSVITREEMEVFHSYFDSVRTEVVLVHCIAGVGRTGTFIMYDILKRMENITLDTFIDVFLNLRSKRAHLVTNKIQLEFLKNIFLESEGHHHHHH | soluble |
| MFQQQKDWETRENAFAAFTMGPLTDFWRQRDEAEFTGVDDIPVRFVRFRAQHHDRVVVICPGRIESYVKYAELAYDLFHLGFDVLIIDHRGQGRSGRLLADPHLGHVNRFNDYVDDLAAFWQQEVQPGPWRKRYILAHSMGGAISTLFLQRHPGVCDAIALTAPMFGIVIRMPSFMARQILNWAEAHPRFRDGYAIGTGRWRALPFAINVLTHSRQRYRRNLRFYADDPTIRVGGPTYHWVRESILAGEQVLAGAGDDATPTLLLQAEEERVVDNRIHDRFCELRTAAGHPVEGGRPLVIKGAYHEILFEKDAMRSVALHAIVDFFNRHNSPSGNRSTEV | soluble |
| MRVEDVMVTDVDTIDITASLEDVLRNYVENAKGSSVVVKEGVRVGIVTTWDVLEAIAEGDDLAEVKVWEVMERDLVTISPRATIKEAAEKMVKNVVWRLLVEEDDEIIGVISATDILRAKMAKRY | soluble |
| SLTTTEVVMENVTAFWEEGFGELFEKAKQNNNNRKTSNGDDSLFFSNFSLLGTPVLKDINFKIERGQLLAVAGSTGAGKTSLLMMIMGELEPSEGKIKHSGRISFCSQFSWIMPGTIKENIIFGVSYDEYRYRSVIKACQLEEDISKFAEKDNIVLGEGGITLSGGQRARISLARAVYKDADLYLLDSPFGYLDVLTEKEIFESCVCKLMANKTRILVTSKMEHLKKADKILILHEGSSYFYGTFLELYHYPADRFVAGFIGSPKMNFLPVKVTATAIDQVQVELPMPNRQQVWLPVESRDVQVGANMSLGIRPEHLLPSDIADVILEGEVQVVEQLGNETQIHIQIPSIRQNLVYRQNDVVLVEEGATFAIGLPPEDCHLFREDGTACRRLHKEPGV | soluble |
| GIFPAEIEDLAQKQVAVDLTQPSRFLLKVLAGANIGAEFHLDSGKTYIVGSDPQVADIVLSDMSISRQHAKIIIGNDNSVLIEDLGSKNGVIVEGRKIEHQSTLSANQVVALGTTLFLLVDYAAPS | soluble |
| MGSDKIHHHHHHMFKESPIIRRVSRQIMVGNVPVGGDAPITVQSMTNTLTTDVAATVAQIKALEAVGADIVRVSVPTMDAAEAFREIKKQVNVPLVADIHFDYRIALKVAEYGVDCLRINPGNIGNENRIRSVVECARDNNIPIRIGVNGGSLEKDIQEKYTEPTPEALLESAMRHVDILDRLNFNEFKVSVKASDVFLAVESYKLLAKQIDNPLHLGITEAGGLRSGSVKSSVGLGLLLAQGIGDTIRISLAADPIEEIKVGFDILKSLKLRSRGINLIACPSCSRQEFDVVSTVNALEQRIEDIMTPMDVSIIGCIVNGPGEAMVSDLGLTGSSKKSGYYLDGIRQKERFDNTDLVDQLEQRIRAKARSMSERLDEKNKIDILTKD | not soluble |
| MGADLRYNMEITLEEAFAGKTAQIRVPTSITCDVCSGSGAKPGTQPKTCATCQGSGRVRAAQGFFSVERTCPTCHGRGQTISDPCGKCHGQGRVTEERSLSVNIPSGIEDGTRIRLQGEGEAGMRGGPAGDLYIFLSVRPHEFFQRDGADLYCTVPISMTTAALGGTFDVTTLDGTKSRVTVPEGTQPGKQFRLKGKGMPVLRSAQTGDLYIQIQIETPQKLSKRQRELLQEFEQLSSKENNPLEHHHHHH | soluble |
| MSTPDDPVIHSPPSIGAAPGMNGYHGSGVKLEESSGACGSPDDGLLDSSEESRRRQKTCRVCGDHATGYNFNVITCESCKAFFRRNALRPKEFKCPYSEDCEINSVSRRFCQKCRLRKCFTVGMKKEWILNEEQLRRRKNSRLNNTGTCNKRSQPGNQQSPQGPNQQPHLSPHHPGVAIYPPQPQRPLTINPMDNQMMHHMQANRPNAMPQLISPPGAQPYPLTSPVGSSASDSPPNRSLTMMHNGEKSPDGYDPNIMAHRAPPPSFNNRPKMDSGQVVLSTEEYKQLLSRIPGAQVPGLMNEEEPINKRAAYNCNGHPMPAETTPPYSAPMSDMSLSRHNSTSSGTEKNHMTHSTVSAIPGNSAQNHFDIASFGMGIVTATGGGDAAEEMYKRMNMFYENCIQSALDSPENQEPKPQEAMIPKEEYMTPTHGFQYQSDPYQVPPAERNINYQLNAAELKALDAVREAFYGMDDPMEQGRQMQSFLKANKTPADIMNIMDVTMRRFVKVAKGVPAFREVSQEGKFSLLKGGMIEMLTVRGVTRYDASTNSFKTPTIKGQNVSVNVDDMFAKLNANAQAQKAKCLEFFGFFDEEIKKNELAVYLVMLAVLFSVRSDPPMNENDVRIVTERHNHFMSLLNRYLESLFGEQARRIFERIPKALGLLNEIARNAGMLFMGTVRSGEAEELPGEFFKIK | not soluble |
